Several values for one entry are separate records, joined by “and”; a condition that tells them apart may be missing. Equal values may be shown once. Each block holds one molecule with its values, some of them ahead of it. Where a SMILES comes first, the peptide text is derived from it. Bridges are numbered along the chain shown (N, C = ends). Where no end group is shown, it is not given here. [ ]: non-standard residue; d: D form.
Tests used:
[1] = molecular target: T1, ADO-D206N (Homo sapiens, UniProt Q96SZ5, D206N); experiment: SPR binding of substrate peptides (native and oxidised) to ADO variant; settings: up to 100 μM
T1 construct: Full-length human ADO (Uniprot ID: Q96SZ5) was cloned; made in house; host or cells: E. coli Rosetta2(DE3)
T1 sequence (Q96SZ5 1-270 D206N): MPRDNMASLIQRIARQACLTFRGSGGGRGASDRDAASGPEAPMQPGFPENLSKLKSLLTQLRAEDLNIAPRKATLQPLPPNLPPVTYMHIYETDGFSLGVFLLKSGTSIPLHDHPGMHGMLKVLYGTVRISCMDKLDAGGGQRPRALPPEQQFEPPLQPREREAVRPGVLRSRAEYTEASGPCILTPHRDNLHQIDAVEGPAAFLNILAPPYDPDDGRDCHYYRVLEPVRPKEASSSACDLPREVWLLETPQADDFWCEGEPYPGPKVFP
Excerpt: (§1) Having verified the accuracy of the substrate analogue-bound crystal structures using MD simulations, key active site residues were mutated to assess their impact on binding and activity using SPR and LCMS. They were chosen based on their proximity to the substrate moieties and their conservation across species, including plants, where NCOs are called plant cysteine oxidases (PCOs; Fig. 5)[9],[10]. Two representative substrates, RGS5_2-15 and IL32_2-15 (a synthetic peptide corresponding to the methionine excised N-terminus of IL32, residues 2–15), were tested to compare interactions with different amino acid sequences.
ADO cannot bind oxidised peptide or protein sequences (i.e. those bearing Nt-Cys sulfinic acid/sulfinate)[36]. To explore whether ADO-D206 plays a role in product release through protonation or charge repulsion, the binding of oxidised RGS5_2-15 and IL32_2-15 to ADO-D206N was monitored by SPR (Supplementary Fig. 22). […] Given its position in the active site (and the fact that many ADO-D206 variants bind substrate), this implies that ADO-D206 contributes to ADO activity through an interaction with O2 during turnover.
SPR measurements were made using a Biacore T200 (Cytiva) instrument and data were analysed using the Biacore Insight Evaluation Software. […]

[2] = molecular target: ADO-D206N, N-terminally His-tagged and biotinylated (human) (UniProt Q96SZ5); experiment: SPR; biotinylated ADO or ADO mutant immobilised on a Biotin CAP chip (~2500-3000 RU), substrate peptide injected; Biacore T200, 4 °C; 20 mM HEPES pH 7.5, 500 mM NaCl, 10 mM DTT, 0.1% tween-20; 50 µL/minute; multi-cycle or single-cycle mode not given; each cell is one of three independent measurements
[3] = molecular target: 2-aminoethanethiol dioxygenase (ADO), full-length human, N-terminally His-tagged and biotinylated (pQE80L-Navi-ADO) (human) (UniProt Q96SZ5); experiment: as above
[4] = test system: ADO-D206A; experiment: SPR binding of substrate peptides to ADO variant; design: species or system human
Excerpt: as §1
(§2) SPR measurements were made using a Biacore T200 (Cytiva) instrument and data were analysed using the Biacore Insight Evaluation Software. Biotinylated-ADO was immobilised on a Biotin CAP chip (Cytiva) with a target density of ∼2500–3000 RU and peptide/protein substrates were injected over the chip. Experiments were conducted at 4 °C using both multi-cycle (fit using the equilibrium steady state affinity 1:1 binding model) and single-cycle kinetics mode (fit using a 1:1 binding model). A buffer comprising 20 mM HEPES pH 7.5, 500 mM NaCl, 10 mM DTT, and 0.1% (v/v) tween-20 was used as the running buffer at a flow rate of 50 μL/minute.
Supplementary Figure 20. SPR analysis of ADO variants with RGS5 peptide. […]

[5] = molecular target: T2, ADO-Y212A (Homo sapiens, UniProt Q96SZ5, Y212A); experiment: SPR binding of substrate peptides to ADO variant
T2 construct: Full-length human ADO (Uniprot ID: Q96SZ5) was cloned; made in house; host or cells: E. coli Rosetta2(DE3)
Excerpt: as §1, §2
(§3) Supplementary Figure 20. SPR analysis of ADO variants with RGS5 peptide. (Left) Representative SPR sensorgram for the titration of RGS52-15 with amino acid substituted ADO. (Right) Fits of the equilibrium responses from the sensorgram in the left panels to a 1:1 binding model. The Kᴅ values are shown (Kᴅ given as the geometric mean of a minimum of three independent SPR measurements (n=3) with standard error). […] The […]
(§4) sensorgram is shown in red and the fit to the data is shown in black. The concentrations of RGS52-15 used in the titration are 25.6 nM, 64 nM, 160 nM, 400 nM, 1000 nM. The Kᴅ value is shown (Kᴅ given as the geometric mean of a minimum of three independent SPR measurements). Source data are provided as Source Data file.
(§5) (1 picture or pasted object on this page, not shown here)
(§6) Supplementary Figure 21. SPR analysis of ADO variants with IL32 peptide. (Left) Representative SPR sensorgram for the titration of IL322-15 with amino acid substituted ADO. (Right) Fits of the equilibrium responses from the sensorgram in the left […]
(§7) sensorgram is shown in red and the fit to the data is shown in black. The concentrations of IL322-15 used in the titration are 25.6 nM, 64 nM, 160 nM, 400 nM, 1000 nM. The Kᴅ value is shown (Kᴅ given as the geometric mean of a minimum of three independent

[6] = molecular target: T3, ADO-I109A (Homo sapiens, UniProt Q96SZ5, I109A); experiment: SPR binding of substrate peptides to ADO variant
T3 construct: Full-length human ADO (Uniprot ID: Q96SZ5) was cloned; made in house; host or cells: E. coli Rosetta2(DE3)
Excerpt: as §1, §2, §3, §4, §5, §6, §7

[7] = molecular target: T4, ADO-Y87F (Homo sapiens, UniProt Q96SZ5, Y87F); experiment: SPR binding of substrate peptides to ADO variant
T4 construct: Full-length human ADO (Uniprot ID: Q96SZ5) was cloned; made in house; host or cells: E. coli Rosetta2(DE3)
Excerpt: as §1, §2, §3, §4, §5, §6, §7

[8] = molecular target: T5, ADO-I109A (human, UniProt Q96SZ5 1-270, I109A, biotin); experiment: SPR; biotinylated ADO (wild type or mutant) immobilised on a Biotin CAP chip, substrate peptides injected; 4 °C; 20 mM HEPES pH 7.5, 500 mM NaCl, 10 mM DTT, 0.1% tween-20; multi-cycle or single-cycle mode not given; settings: both partners purified
T5 construct: 2-aminoethanethiol dioxygenase (ADO), human, UniProt Q96SZ5, full length; Made by site-directed mutagenesis of the SPR construct; source: E. coli Rosetta2(DE3), purified (Ni-NTA, SEC); not shown: biotinylation tag (from the vector pQE80L-Navi), N-terminal, kept
T5 sequence (looked up): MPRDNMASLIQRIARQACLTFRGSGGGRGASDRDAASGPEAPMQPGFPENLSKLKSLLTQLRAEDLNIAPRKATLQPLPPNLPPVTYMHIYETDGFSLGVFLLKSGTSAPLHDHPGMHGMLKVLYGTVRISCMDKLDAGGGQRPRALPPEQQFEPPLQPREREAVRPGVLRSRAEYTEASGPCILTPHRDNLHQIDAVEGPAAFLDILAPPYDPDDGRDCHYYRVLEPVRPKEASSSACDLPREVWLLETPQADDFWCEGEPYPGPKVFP

[9] = molecular target: T6, 2-aminoethanethiol dioxygenase (ADO), full-length human, N-terminally His-tagged and biotinylated … (human, UniProt Q96SZ5 1-270, biotin (biotinylated during expression, 0.2 mM biotin added)); experiment: SPR; single-cycle kinetics (1:1 binding model); biotinylated ADO immobilised on a Biotin CAP chip (~2500-3000 RU), cyclic peptide injected; Biacore T200, 4 °C; 20 mM HEPES pH 7.5, 500 mM NaCl, 10 mM DTT, 0.1% tween-20; 50 µL/minute; each cell is one of three independent measurements; settings: both partners purified
T6 construct: 2-aminoethanethiol dioxygenase (ADO), human, UniProt Q96SZ5, full length; Immobilised through its biotin on a Biotin CAP chip for SPR; also called wild type ADO; Biotinylated-ADO; source: E. coli Rosetta2(DE3), purified (Ni-NTA, SEC); not shown: biotinylation tag (from the vector pQE80L-Navi), N-terminal, kept
T6 sequence (looked up): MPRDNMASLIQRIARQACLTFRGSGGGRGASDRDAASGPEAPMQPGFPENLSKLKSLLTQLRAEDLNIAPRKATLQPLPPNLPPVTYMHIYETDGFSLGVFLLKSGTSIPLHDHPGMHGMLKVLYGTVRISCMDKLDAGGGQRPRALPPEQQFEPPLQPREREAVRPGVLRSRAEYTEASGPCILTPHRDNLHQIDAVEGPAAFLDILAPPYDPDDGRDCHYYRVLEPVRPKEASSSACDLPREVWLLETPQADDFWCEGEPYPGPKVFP

[10] = molecular target: 2-aminoethanethiol dioxygenase (ADO), wild type, biotinylated (pQE80L-Navi-ADO) (human); experiment: SPR; single-cycle kinetics (SCK), 1:1 binding model; biotinylated ADO or variant immobilised on a Biotin CAP chip, peptide injected at 25.6, 64, 160, 400, 1000 nM; 4 °C; 20 mM HEPES pH 7.5, 500 mM NaCl, 10 mM DTT, 0.1% (v/v) tween-20; 50 μL/minute

T2 sequence (Q96SZ5 whole entry Y212A): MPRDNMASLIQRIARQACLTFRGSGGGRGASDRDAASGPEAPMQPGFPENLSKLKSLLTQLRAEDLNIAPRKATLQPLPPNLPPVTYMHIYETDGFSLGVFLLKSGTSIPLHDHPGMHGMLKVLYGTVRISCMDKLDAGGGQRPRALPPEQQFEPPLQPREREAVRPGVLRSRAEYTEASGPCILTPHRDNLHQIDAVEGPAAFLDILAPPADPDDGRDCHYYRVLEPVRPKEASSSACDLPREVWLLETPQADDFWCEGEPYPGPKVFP
T4 sequence (Q96SZ5 whole entry Y87F): as the sequence (Q96SZ5 whole entry Y212A) above, with Y87F, A212Y counted along it

Molecule: oxidised IL32_2-15: IL32_2-15 bearing Nt-Cys sulfinic acid/sulfinate, obtained through pre-incubation with ADO ([Cys sulfinic acid]FPKVLSDDMKKLK)
binding of oxidised peptide to ADO-D206N (in words) [1]: No association was observed

Molecule: CSCC[C@H](NC(=O)[C@H](CC(=O)O)NC(=O)[C@H](CC(=O)O)NC(=O)[C@H](CO)NC(=O)[C@H](CC(C)C)NC(=O)[C@@H](NC(=O)[C@H](CCCCN)NC(=O)[C@@H]1CCCN1C(=O)[C@H](Cc1ccccc1)NC(=O)[C@@H](N)CS)C(C)C)C(=O)N[C@@H](CCCCN)C(=O)N[C@@H](CCCCN)C(=O)N[C@@H](CC(C)C)C(=O)N[C@@H](CCCCN)C(N)=O [14-mer IL32] (H-CFPKVLSDDMKKLK-NH2; C-terminus assumed)
binding to ADO-D206A (in words) [4]: no binding | KD ([5]; replicate 2): 24700 nM | KD ([5]; replicate 3): 24700 nM | fold increase in KD relative to wild type ADO [6]: 35 fold

Molecule: CC(C)C[C@H](NC(=O)CNC(=O)[C@H](CCCCN)NC(=O)[C@@H](N)CS)C(=O)N[C@@H](C)C(=O)N[C@@H](C)C(=O)N[C@@H](CC(C)C)C(=O)N1CCC[C@H]1C(=O)N[C@@H](Cc1c[nH]cn1)C(=O)N[C@@H](CO)C(=O)N[C@@H](CS)C(=O)N[C@@H](CC(C)C)C(=O)N[C@@H](CCC(=O)O)C(=O)N[C@@H](CCCNC(=N)N)C(N)=O [14-mer RGS5] (H-CKGLAALPHSCLER-NH2; C-terminus assumed)
binding to ADO-D206A (in words) [4]: no binding | KD ([7]; replicate 1): 339 nM | KD ([7]; replicate 3): 339 nM | fold increase in KD relative to wild type ADO [6]: 2 fold

B3: CP6-L8K-Cys (peptide)
peptide: {CH2CO}-YIVKTFWK(Cys)GSHRQC
modifications: thioether N-14
notes: the substitution L8K is to be applied, Cys on the sidechain amine of K8; Branched peptide: the Cys is not in the main chain; source: synthetic peptide
Kd [9]: 11 nM and 13.1 nM and 13.7 nM | Kd [10]: 13 nM

B4: CP6-L8K-Ser (peptide)
peptide: {CH2CO}-YIVKTFWK(Ser)GSHRQC
modifications: thioether N-14
notes: the substitution L8K is to be applied, Ser on the sidechain amine of K8; Branched peptide: the Ser is not in the main chain; also called CP-L8K-Ser; source: synthetic peptide
Kd [9]: 17.2 nM and 20.6 nM and 26.8 nM | Kd [10]: 21 nM

Next, values leading:

binding of oxidised peptide to ADO-D206N (in words) [1]: No association was observed
Molecule: oxidised RGS5_2-15: RGS5_2-15 bearing Nt-Cys sulfinic acid/sulfinate, obtained through pre-incubation with ADO ([Cys sulfinic acid]KGLAALPHSCLER)

Kd [2]: 68.4 nM and 73.3 nM and 67.5 nM | Kd [3]: 372 nM and 449 nM and 573 nM
Molecule: IL32(2-15), synthetic peptide corresponding to the methionine excised N-terminus of IL32, residues 2-15 (from UniProt P24001 2-15)

Kd [2]: 149 nM and 155 nM and 152 nM | Kd [3]: 609 nM and 637 nM and 675 nM
Molecule: RGS5(2-15), synthetic peptide corresponding to the methionine excised N-terminus of RGS5, residues 2 to 15 (from UniProt O15539 2-15)

fold increase in KD relative to wild type ADO [8]: 2 fold
B1: RGS5_(2-15), synthetic peptide corresponding to the methionine excised N-terminus of RGS5, residues 2 to 15 (peptide, UniProt O15539 2-15, looked up)
peptide: CKGLAALPHSCLER
notes: RGS5, human, residues 2 to 15 (methionine excised N-terminus); peptide synthesis is in the supplementary methods; source: synthetic peptide

fold increase in KD relative to wild type ADO [8]: 35 fold
B2: IL32_(2-15), synthetic peptide corresponding to the methionine excised N-terminus of IL32, residues 2-15 (peptide, UniProt P24001 2-15, looked up)
peptide: CFPKVLSDDMKKLK
notes: interleukin 32 (IL32), residues 2-15 (methionine excised N-terminus); peptide synthesis is in the supplementary methods; source: synthetic peptide
